Reference: doi:10.1101/2024.11.24.625074, “Assembly and lipid-gating of LRRC8A:D volume-regulated anion channels” (bioRxiv, 2024)

Target: the molecule itself
Test: cryo-EM structure; LRRC8A_(BRIL):D complexes co-expressed in Sf9, purified in 20 mM HEPES, 150 mM KCl, 1 mM EDTA, 0.02% GDN, pH 7.4; α-BRIL Fab BAG2 and α-Fab Nb added as fiducials; two conformations resolved by 3D variability analysis, C1 symmetry

B1: Mus musculus LRRC8D (natural protein, UniProt Q8BGR2 1-859, looked up)
chain: MFTLAEVASLNDIQPTYRILKPWWDVFMDYLAVVMLMVAIFAGTMQLTKDQVVCLPVLPSPANSKAHTPPGNADITTEVPRMETATHQDQNGQTTTNDVAFGTSAVTPDIPLQATHPHAESTLPNQEAKKEKRDPTGRKTNLDFQQYVFINQMCYHLALPWYSKYFPYLALIHTIILMVSSNFWFKYPKTCSKVEHFVSILGKCFESPWTTKALSETACEDSEENKQRITGAQTLPKHVSTSSDEGSPSASTPMINKTGFKFSAEKPVIEVPSMTILDKKDGEQAKALFEKVRKFRAHVEDSDLIYKLYVVQTLIKTAKFIFILCYTANFVNAISFEHVCKPKVEHLTGYEVFECTHNMAYMLKKLLISYISIICVYGFICLYTLFWLFRIPLKEYSFEKVREESSFSDIPDVKNDFAFLLHMVDQYDQLYSKRFGVFLSEVSENKLREISLNHEWTFEKLRQHVSRNAQDKQELHLFMLSGVPDAVFDLTDLDVLKLELIPEAKIPAKISQMTNLQELHLCHCPAKVEQTAFSFLRDHLRCLHVKFTDVAEIPAWVYLLKNLRELYLIGNLNSENNKMIGLESLRELRHLKILHVKSNLTKVPSNITDVAPHLTKLVIHNDGTKLLVLNSLKKMMNVAELELQNCELERIPHAIFSLSNLQELDLKSNNIRTIEEIISFQHLKRLTCLKLWHNKIVAIPPSITHVKNLESLYFSNNKLESLPTAVFSLQKLRCLDVSYNNISTIPIEIGLLQNLQHLHITGNKVDILPKQLFKCVKLRTLNLGQNCIASLPEKISQLTQLTQLELKGNCLDRLPAQLGQCRMLKKSGLVVEDQLFDTLPLEVKEALNQDVNVPFANGI
notes: the tag was cut off with TEV protease during purification, so a short C-terminal remnant of the linker and the cleavage site is left; Two copies stand in the hexameric channel; also called mmLRRC8D; LRRC8D subunit; source: Sf9 cells, co-expressed with LRRC8A_(BRIL) from one baculovirus; purified in GDN (α-mCherry nanobody resin, α-GFP nanobody resin, Superose 6 Increase); not shown: mCherry, …
binding result: binds
